Assay results taken from PMC8967061.
pKd: −log10 of the molar value.

Biological target: Factor H domains 19-20 (human) (UniProt P08603)
Assay: MST; FH19-20 labelled with RED-tris-NTA dye (300 nM stock, mixed 1:1 with ligand), FhbA proteins titrated, PBS/0.025% Tween-20, 22 C

Sequence of Factor H domains 19-20 (human) (P08603 1104-1231): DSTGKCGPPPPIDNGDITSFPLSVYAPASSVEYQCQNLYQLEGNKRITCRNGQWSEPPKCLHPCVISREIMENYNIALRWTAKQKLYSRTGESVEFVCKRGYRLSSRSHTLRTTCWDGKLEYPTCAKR

Row | Substance | pKd
1 | BhFhbA Phe154Ala (from UniProt W5SB08 44-202) (domain or fragment) | 5.22
2 | FhbA homologue from Borrelia duttonii, wild type (natural protein) | 5.97
